Laboratory results published in PMC4070910, “Cathepsin S Signals via PAR2 and Generates a Novel Tethered Ligand Receptor Agonist” (PLoS ONE, 2014).
Entries after “also recorded” stand apart in the source; their conditions may differ.

Key:
[1] = tested on: PAR2M3 (leucine38 and glycine40 to alanines); test: Calcium imaging in HeLa cells transfected with PAR2M3; format: cell-based, human; details: cathepsin S 2 µM, KVDGTS 100 µM
Protocol: Human PAR2 cDNA was cloned as an Xho I-Hind III fragment (1206 bp) into pcDNA3.1(−). 10 µg of DNA were diluted into 0.5 ml of DMEM and mixed with 0.5 ml of DMEM containing 10 µl of Lipofectamine 2000 transfection reagent and incubated at room temperature for 20 minutes. HeLa cells were grown to confluence, trypsinized and 1×10^6 cells were pelleted in a 15 ml tube by centrifugation at 1000 rpm for 5 minutes. The DMEM-Lipofectamine 2000-DNA mixture (1 ml) was added to the cell pellet, resuspended gently and incubated at room temperature for 20 minutes. Four ml of complete DMEM with 10% FBS were added to the tube, mixed by inverting the tube several times, plated into a 96-well glass bottom plate at 20,000 cells/well, and placed in a 37°C CO2 incubator. HeLa cells transfected with vector alone or salmon sperm DNA (shown in the figures) were plated as a control. The medium was aspirated two days after transfection. Fura-2 was used as a ratiometric calcium-sensitive indicator as follows. […]
Imaging was performed using a Zeiss Axiovert 200 M microscope platform equipped with a flipping filter wheel for ratiometric imaging. […] The software later analyzed all images taken during each excitation period. Typically, ratiometric changes were measured in 10–20 cells in each image. An average of the fluorescence of the cells in each image was calculated and plotted against time in seconds. […]

human PAR2 = test: Fura-2 calcium imaging in HeLa cells transfected with PAR2 cDNA; format: cell-based
Protocol: Human PAR2 cDNA was cloned as an Xho I-Hind III fragment (1206 bp) into pcDNA3.1(−). 10 µg of DNA were diluted into 0.5 ml of DMEM and mixed with 0.5 ml of DMEM containing 10 µl of Lipofectamine 2000 transfection reagent and incubated at room temperature for 20 minutes. HeLa cells were grown to confluence, trypsinized and 1×10^6 cells were pelleted in a 15 ml tube by centrifugation at 1000 rpm for 5 minutes. The DMEM-Lipofectamine 2000-DNA mixture (1 ml) was added to the cell pellet, resuspended gently and incubated at room temperature for 20 minutes. Four ml of complete DMEM with 10% FBS were added to the tube, mixed by inverting the tube several times, plated into a 96-well glass bottom plate at 20,000 cells/well, and placed in a 37°C CO2 incubator. HeLa cells transfected with vector alone or salmon sperm DNA (shown in the figures) were plated as a control. The medium was aspirated two days after transfection. Fura-2 was used as a ratiometric calcium-sensitive indicator as follows. 100 µl of complete DMEM containing 2 µM of Fura-2 were added to each well and left at room temperature in the dark for 1 hr. Following loading with Fura-2, the medium was aspirated and replaced with 90 µl of HEPES-buffered saline (20 mM HEPES, 115 mM NaCl, 5.4 mM KCl, 2 mM CaCl2, 0.8 mM MgCl2, 13.8 mM glucose, pH 7.4).
Imaging was performed using a Zeiss Axiovert 200 M microscope platform equipped with a flipping filter wheel for ratiometric imaging. Axiovision software, version 4.6 was used for image analysis of the cells which were excited at 340 nm and 380 nm. Ten µl of peptide agonist were added at 20 seconds after the start of the excitation procedure. Images were taken every 5 seconds, including at zero time, during a 3-minute period or longer if required. The software later analyzed all images taken during each excitation period. Typically, ratiometric changes were measured in 10–20 cells in each image. An average of the fluorescence of the cells in each image was calculated and plotted against time in seconds.
HeLa cells transfected with PAR2 cDNA were subjected to ratiometric imaging as described above with PAR2 peptides, SLIGRL, KVDGTS, and SLIGKVDGTS in addition to the reverse peptides LRGILS and STGDVK at concentrations from 1 nM - 1 mM. Each of the concentration-dependent readings was performed in triplicate. Maximum intensities at each of the dilutions were calculated and plotted against concentration using GraphPad/PRISM software version 6.0 (Irvine, CA). Error bars represent +/−SEM.

B1: cathepsin S: Recombinant human cathepsin S, cysteine protease, expressed in E.coli, refolded and activated (protein, UniProt P25774 115-331, looked up)
Cathepsin S: LPDSVDWREKGCVTEVKYQGSCGACWAFSAVGALEAQLKLKTGKLVSLSAQNLVDCSTEKYGNKGCNGGFMTTAFQYIIDNKGIDSDASYPYKAMDQKCQYDSKYRAATCSKYTELPYGREDVLKEAVANKGPVSVGVDARHPSFFLYRSGVYYEPSCTQNVNHGVLVVGYGDLNGKEYWLVKNSWGHNFGEEGYIRMARNKGNHCGIASFPSYPEI
[1]
  calcium response on PAR2M3 (in words): did not induce calcium responses; also recorded: not PAR2M2 or PAR2M3
Human PAR2; PAR2-transfected HeLa, KVDGTS 100 µM, cathepsin S 2 µM, papain 2 µM, trypsin 10 nM, second agent after up to 60 minutes, room temperature
  effect as first agent on calcium response to second agent (in words): failed to induce a calcium response at any time up to 60 minutes
Human PAR2; PAR2-transfected HeLa, second agent after 2, 3, 5, 10, 30 and 60 minutes (cathepsin S), papain 2 µM, trypsin 10 nM, room temperature
  calcium response to the substance as second agent after KVDGTS (in words): present but reduced
Human PAR2; single-cell imaging, KVDGTS 100 µM, SLIGRL 10 µM, IGKVDG 100 µM, cathepsin S 2 µM, room temperature
  calcium response (in words): able to stimulate native PAR2 and PAR2M1
Human PAR2; summary of these studies (discussion)
  concentration at which active/effective: 1 to 2 µM
